Laboratory results published in publication PMC4474532 (The EMBO Journal, 2015).

What was measured:
[1] = target: the molecule itself; test: crystal structure; human PERK LD, untagged, 5 mg/ml, hanging drops, 0.1 M Tris pH 8.5, 0.2 M MgCl2, 25% w/v PEG3350, 7% glycerol, 18°C; tungstate MAD; 3.1 Å
[2] = target: the molecule itself; test: SAXS; H. sapiens PERK LD 1.25 mg/ml (results: 1–5 mg/ml); 50 mM HEPES pH 7.8, 200 mM NaCl, 2 mM TCEP; profiles computed from the crystal structures fitted with OLIGOMER
[3] = target: the molecule itself; test: AUC; sedimentation velocity, 20°C, PERK LD proteins at 30 μM; 50 mM HEPES pH 7.8, 200 mM NaCl, 2 mM TCEP; c(s) by Sedfit; dimer to tetramer equilibrium
[4] = target: the molecule itself; test: crystal structure; mouse PERK LD, untagged, 20 mg/ml, hanging drops, 0.1 M MES/imidazole pH 6.5, NPS mix, 12.5% PEG1000, 12.5% PEG3350, 20% MPD, 18°C; 3.3 Å

B1: human PERK luminal domain (residues 105–403) (domain or fragment, UniProt Q9NZJ5 105-403, looked up)
chain: LVIISTLDGRIAALDPENHGKKQWDLDVGSGSLVSSSLSKPEVFGNKMIIPSLDGALFQWDQDRESMETVPFTVESLLESSYKFGDDVVLVGGKSLTTYGLSAYSGKVRYICSALGCRQWDSDEMEQEEDILLLQRTQKTVRAVGPRSGNEKWNFSVGHFELRYIPDMETRAGFIESTFKPNENTEESKIISDVEEQEAAIMDIVIKVSVADWKVMAFSKKGGHLEWEYQFCTPIASAWLLKDGKVIPISLFDDTSYTSNDDVLEDEEDIVEAARGATENSVYLGMYRGQLYLQSSVRI
- stoichiometry N [1]: 4
- dimer to tetramer ratio [2]: 1.5 dimer:tetramer
- stoichiometry N [2]: 2

B2: mouse PERK luminal domain (residues 101–399) (domain or fragment, UniProt Q9Z2B5 101-399, looked up)
chain: LVIISTLDGRIAALDAENDGKKQWDLDVGSGSLVSSSLSKPEVFGNKMIIPSLDGDLFQWDRDRESMEAVPFTVESLLESSYKFGDDVVLVGGKSLITYGLSAYSGKLRYICSALGCRRWDSDEMEEEEDILLLQRTQKTVRAVGPRSGSEKWNFSVGHFELRYIPDMETRAGFIESTFKPGGNKEDSKIISDVEEQEATMLDTVIKVSVADWKVMAFSRKGGRLEWEYQFCTPIASAWLVRDGKVIPISLFDDTSYTASEEALGDEEDIVEAARGATENSVYLGMYRGQLYLQSSVRV
- dimer to tetramer ratio [3]: ~1.5 dimer:tetramer
- stoichiometry N [3]: 4
- stoichiometry N [4]: 2
